Experimental data taken from US20260199507A1 (MULTITUDE THERAPEUTICS, published 2026).
Residue numbers refer to the chain shown, from its start.

B1: Hu01 L5H2 (antibody, human IgG1, kappa, V domains shown)
VH: QVQLVQSGAEVKRPGSSVKVSCKASGYTFSSYWMYWVRQAPGQGLEWIGQIYPGDGDSNYNENFQGRVTITADKSTSTAYMELSSLTSEDSAVYFCTREGYGNRFAYWGQGTLVTVSS
VL: EIVLTQSPALLSLSPGERATLSCSASSSVSYMYWYQQKPGQAPRLLIQLTSNLASGVPARFSGRGSGTDFTLTISSLEPEDFAVYYCQQWSYNPPTFGGGTKVEIKR
B2: Hu01-L3H1 (antibody, human IgG1, kappa, V domains shown)
VH: B1 VH with T87R, S91T, F95Y
VL: B1 VL with L11M, G40R, Q41S, L45P, L46W, T71S, P79A, V84T
notes: also called Hu01 antibody L3H1
B3: Hu01 L5H1 (antibody, human IgG1, kappa, V domains shown)
VH: B1 VH with T87R, S91T, F95Y
VL: B1 VL
B4: Hu01 L3H2 (antibody, human IgG1, kappa, V domains shown)
VH: B1 VH
VL: B1 VL with L11M, G40R, Q41S, L45P, L46W, T71S, P79A, V84T
B5: Mu01 (antibody, V domains shown)
VH: QVQLQQSGAELVRPGSSVKISCKASGYTFSSYWMYWVKQRPGQGLEWIGQIYPGDGDSNYNENFKGKATLTADKSSSTAYMQLSSLTSEDSAVYFCTREGYGNRFAYWGQGTLVTVSA
VL: QIVLTQSPALMSASPGEKVTMTCSASSSVSYMYWYQQKPRSSPKPWINLTSNLASGVPARFSGRGSGTSYSLTISSMEAEDAATYYCQQWSYNPPTFGGGTKLEIK
notes: Murine hybridoma antibody purified from ascites; also called monoclonal antibody Mu01; antibody Mu01
B6: Ch02 (antibody, human IgG1, kappa, V domains shown)
VH: EVKLVESGGGLVQPGGSLRLSCATSGFTFTEYHMSWVRQPPGKALEWLGFIRNRANGYTTEYSASVKGRFTISRDNSQNILYLQMNTLRTEDSATYYCARLTMVVAEFDYWGQGTTLTVSS
VL: DIQMTQSPSSLSASLGGEVTITCKASQDINKYIAWYQHKPGKGPRLLIHYTSTLQPGIPSRFSGSGSGRDYSFSVSNLEPEDIATYYCLQYDNLLTFGAGTKLELKR
notes: also called chimeric antibody Ch02; Ch02 antibody
B7: Hu02 L1H1 (antibody, human IgG1, kappa, V domains shown)
VH: EVQLVESGGGLVQPGGSLRLSCAASGFTFTEYHMSWVRQAPGKGLEWVGFIRNRANGYTTEYAASVKGRFTISRDDSKNSLYLQMNSLKTEDTAVYYCARLTMVVAEFDYWGQGTLVTVSS
VL: DIQMTQSPSSLSASVGDRVTITCQASQDINKYLNWYQHKPGKGPKLLIYYTSTLQTGVPSRFSGSGSGTDFTFTVSNLQPEDIATYYCLQYDNLLTFGQGTKLEIKR
B8: Hu02 L1H3 (antibody, human IgG1, kappa, V domains shown)
VH: B7 VH with N56Q
VL: B7 VL
B9: Hu02 L1H5 (antibody, human IgG1, kappa, V domains shown)
VH: B7 VH with G57A, D76N, S87T, K89R
VL: B7 VL
B10: Hu02 L2H1 (antibody, human IgG1, kappa, V domains shown)
VH: B7 VH
VL: B7 VL with D1A, D17E, Q24R
B11: Hu02 L2H3 (antibody, human IgG1, kappa, V domains shown)
VH: B7 VH with N56Q
VL: B7 VL with D1A, D17E, Q24R
B12: Hu02 L2H2 (antibody, human IgG1, kappa, V domains shown)
VH: B7 VH with G57A
VL: B7 VL with D1A, D17E, Q24R
B13: Hu02 L2H6 (antibody, human IgG1, kappa, V domains shown)
VH: B7 VH with N56Q, D76N, S87T, K89R
VL: B7 VL with D1A, D17E, Q24R
B14: Hu02 L2H5 (antibody, human IgG1, kappa, V domains shown)
VH: B7 VH with G57A, D76N, S87T, K89R
VL: B7 VL with D1A, D17E, Q24R
B15: Hu02 L1H6 (antibody, human IgG1, kappa, V domains shown)
VH: B7 VH with N56Q, D76N, S87T, K89R
VL: B7 VL
B16: Hu02 L1H4 (antibody, human IgG1, kappa, V domains shown)
VH: B7 VH with D76N, S87T, K89R
VL: B7 VL
B17: Hu02-L1H2 (antibody, human IgG1, kappa, V domains shown)
VH: B7 VH with G57A
VL: B7 VL

target: T1, CD142 (Tissue Factor) on BxPC3 human pancreatic cancer cells (human, UniProt P13726 33-295); assay: flow cytometry on BxPC3 cells, 3-fold dilutions from 500 nM, FITC goat anti-human detection
T1 construct: whole, on cells; also called TF
Experimental: Digested cells were centrifuged at 1000 rpm for 5 min and blocked with 10% goat serum (purchased from SenBeiJia Biological Technology Co., Ltd., Product No. SRJ-SE-GO012) for 30 min. Then Hu01 antibodies L5H2, L5H1, L3H1, L3H2 prepared in Example 4 were diluted with a 3-fold gradient at the initial concentration of 500 nM. After that, the Hu01 antibody was added to the cells and incubated for 1 h. After washing twice with PBS, FITC-labeled goat anti-human antibody (purchased from Sigma, product No. FS9512-2ML) was added at 1:500 and incubated for 1 h. The results were analyzed by flow cytometry after washing twice with PBS.

binding result	Binder
binds	B1
binds	B2
binds	B3
binds	B4

target: T1, CD142 (Tissue Factor) on BxPC3 human …; assay: flow cytometry on BxPC3 cells, antibody at 20 ug/mL, FITC goat anti-mouse detection
Experimental: Digested cells were centrifuged at 1000 rpm for 5 min and blocked with 10% goat serum (purchased from SenBeiJia Biological Technology Co., Ltd., Product No. SRJ-SE-GOO12) for 30 min. Then Mu01 and Mu02 antibodies respectively prepared in Example 4 and Example 5 were added at a final concentration of 20 μg/mL and incubated for 1 h. After washing with Phosphate buffer (PBS, PH 7.2-7.4) for 2 times, FITC-labeled goat anti-mouse antibody (purchased from Jackson ImmunoResearch, No. 115-545-003) was added at 1:500 and incubated for 1 hour. Analyzed the resulting product by flow cytometry after washing with PBS for 2 times.

binding result	Binder
binds	B5

target: T1, CD142 (Tissue Factor) on BxPC3 human …; assay: flow cytometry on BxPC3 cells
Experimental: Digested cells were centrifuged at 1000 rpm for 5 min and blocked with 10% goat serum (purchased from SenBeiJia Biological Technology Co., Ltd., Product No. SRJ-SE-GO012) for 30 min. Then Hu02 antibodies L1H1, L1H2, L1H3, L1H4, L1H5, L1H6, L2H1, L2H2, L2H3, L2H5, and L2H6 prepared in Example 5 were serially diluted 3 times with an initial concentration of 500 nM. After that, the Hu02 antibody was added to the cells and incubated for 1 h. After washing twice with PBS, FITC-labeled goat anti-human antibody (purchased from Sigma, product No. FS9512-2ML) was added at 1:500 and incubated for 1 h. The results were analyzed by flow cytometry (BD biosciences, product No. BD Accuri C6 Plus) after washing twice with PBS.

EC50 [nM]	Binder
19.2	B6
11.6	B7
19.7	B8
9.48	B9
18.1	B10
25.2	B11
18.3	B12
6.54	B13
8.12	B14
10.2	B15
6.39	B16
13.2	B17
